Reference: patent US20230212305A1, “ANTI-ABCG2 ANTIBODIES AND USES THEREOF” (Kenjockety Biotechnology, Inc., priority 2020, published 2023)
Entries after “also recorded” stand apart in the source; their conditions may differ.

Experiments:
ABCG2 [1] = target: T1, ABCG2 (Homo sapiens, UniProt Q9UNQ0); experiment: Flow cytometry binding to 293T cells overexpressing human ABCG2 (293T_ABCG2_OX); design: key to Binding by FACS: binding=“+”; non-significant binding=“−”; conditions: for binding to 293 cells overexpressing human ABCG2 (hG2): FACS, FIG. 1
T1 construct: expressed in transfected cells
T1 sequence (Q9UNQ0 1-655): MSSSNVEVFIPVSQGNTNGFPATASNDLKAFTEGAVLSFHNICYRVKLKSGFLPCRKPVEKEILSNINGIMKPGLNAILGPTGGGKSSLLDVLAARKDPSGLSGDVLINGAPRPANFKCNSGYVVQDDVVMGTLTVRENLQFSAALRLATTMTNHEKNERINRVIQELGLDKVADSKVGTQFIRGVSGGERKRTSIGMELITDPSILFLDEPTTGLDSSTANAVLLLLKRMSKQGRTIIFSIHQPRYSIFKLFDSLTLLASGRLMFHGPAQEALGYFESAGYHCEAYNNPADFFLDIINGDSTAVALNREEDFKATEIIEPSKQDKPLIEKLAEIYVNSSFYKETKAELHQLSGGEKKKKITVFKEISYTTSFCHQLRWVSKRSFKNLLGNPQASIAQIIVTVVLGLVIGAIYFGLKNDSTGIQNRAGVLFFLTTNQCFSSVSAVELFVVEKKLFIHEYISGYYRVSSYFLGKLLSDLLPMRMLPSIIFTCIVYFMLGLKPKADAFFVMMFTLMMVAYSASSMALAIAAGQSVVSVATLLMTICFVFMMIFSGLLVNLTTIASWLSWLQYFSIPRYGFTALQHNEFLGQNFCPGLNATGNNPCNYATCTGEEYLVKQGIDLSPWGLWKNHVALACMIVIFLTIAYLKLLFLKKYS
Method in brief: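 Antibodies serially diluted (from 100 ug/mL or about 666 nM) and incubated 30 min on ice with 293T cells stably expressing human or cynomolgus ABCG2, in PBS/2% FBS/0.02% azide. Bound antibody detected by PE anti-human IgG F(ab′)2, 20 min on ice, flow cytometry; EC50 = concentration giving half-maximal signal.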

cynomolgus ABCG2 = experiment: Flow cytometry binding to 293T cells overexpressing cynomolgus ABCG2; design: key to Cynomolgus ABCG2 binding: binding=“+”; non-significant binding=“−”; conditions: for binding to 293 cells overexpressing cynomolgus ABCG2 (cG2): FACS, FIG. 1
cynomolgus ABCG2, sequence (as listed by the source): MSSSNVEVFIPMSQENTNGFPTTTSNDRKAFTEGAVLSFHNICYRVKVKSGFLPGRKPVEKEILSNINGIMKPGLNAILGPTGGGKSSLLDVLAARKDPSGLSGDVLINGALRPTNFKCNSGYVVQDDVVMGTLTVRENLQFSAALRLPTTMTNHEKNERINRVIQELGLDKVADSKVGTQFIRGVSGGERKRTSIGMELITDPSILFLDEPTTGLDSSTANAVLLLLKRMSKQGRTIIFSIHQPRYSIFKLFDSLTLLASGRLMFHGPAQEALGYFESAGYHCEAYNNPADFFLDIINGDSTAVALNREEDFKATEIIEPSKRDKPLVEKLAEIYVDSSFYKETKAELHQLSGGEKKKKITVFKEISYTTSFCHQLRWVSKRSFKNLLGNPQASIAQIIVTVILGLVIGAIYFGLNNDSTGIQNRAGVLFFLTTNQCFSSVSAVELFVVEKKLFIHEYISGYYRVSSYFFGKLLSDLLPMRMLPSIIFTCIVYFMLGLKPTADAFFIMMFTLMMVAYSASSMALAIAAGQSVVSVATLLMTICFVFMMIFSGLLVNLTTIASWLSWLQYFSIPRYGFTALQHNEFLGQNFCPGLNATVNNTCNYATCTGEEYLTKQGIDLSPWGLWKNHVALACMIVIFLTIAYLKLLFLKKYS
Method in brief: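 293T cells stably overexpressing cynomolgus ABCG2 were incubated on ice for 30 min with antibody at 5 ug/mL or serial dilutions from 100 ug/mL. Bound antibody detected with PE-labelled anti-human IgG F(ab′)2 by flow cytometry; EC50 taken as concentration giving half-maximal response.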

Panc1/T300 cells = experiment: Xenograft study with topotecan-resistant Panc1/T300 cells; assay type: in vivo
Experimental: PANC1 (ATCC, CRL-1469) is a pancreatic ductal epithelial carcinoma cell line. The topotectan-resistant Panc1/T300 cells were developed by continuously incubating PANC1 cells in the culture medium containing increasing concentration of topotecan of 25, 50, 100, 200 and 300 nM. […] The arrows indicate the dosing schedule.

A549 (ATCC, CCL-185) = experiment: Xenograft study with NSCLC cell line A549; assay type: in vivo
ABCG2 [2] = target: T1, ABCG2; assay type: cell-based
Method in brief: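 293T cells overexpressing ABCG2 (2×10e6 cells/ml, phenol red-free DMEM) treated with antibodies or inhibitors at 1 μM final, then loaded with 2.5 μM mitoxantrone 1 h at 37° C. After washing, mitoxantrone retention read as fluorescence (ex 635, em 647 nm) to measure efflux blockade.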

293T_ABCG2_OX cells = assay type: cell-based, human; conditions: for Killing: cell killing by topotecan on 293T_ABCG2_OX cells, viability relative to IgG control
Experimental: Cytotoxicity Assays. The effect of antibodies on topotecan cytotoxicity was evaluated on 293T_ABCG2_OX cells, 293T cells stably transfected to express ABCG2. Cells were plated in 0.05 mL of Assay Media (DMEM+10% FBS) at 5000 cells/well in white, flat bottom 96-well tissue culture plates. Topotecan was prepared at 2× final assay concentration by serial dilution from 200 uM in assay media containing test antibodies or control antibodies at 100 ug/mL (2× final concentration), or Fumitremorgin C, a small molecule ABCG2 inhibitor at 20 uM (2× final concentration). An equivalent volume (0.05 mL) of the topotecan/antibody mixture was added to the 293T_ABCG2_OX cells in 96-well plates. The plates were then incubated at 37° C., in 5% CO2. After 72-96 hr plates were equilibrated to room temperature and cell viability assessed using Promega® CellTiter-Glo® Luminescent Cell Viability Assay according to the manufacturer's recommended protocol. Luminescence was measured on a Molecular Devices® FlexStation® 3 Multi-Mode Microplate Reader and data analyzed using GraphPad Prism 8.0 software. Half maximal inhibitory concentration (1050) is the concentration of drug (topotecan or other chemotherapy cytotoxic agent) where the response (cell growth) is reduced by 50%.

HEK 293 naïve cells = experiment: FACS binding to HEK 293 naïve cells; design: species or system human; conditions: FIG. 1

Molecule | Binding by FACS (ABCG2 [1]; 293T_ABCG2_OX cells) | Cynomolgus ABCG2 binding (cynomolgus ABCG2) | tumor volume, in combination with topotecan (Panc1/T300 cells) | tumor volume, in combination with topotecan (A549 (ATCC, CCL-185)) | Block Efflux (ABCG2 [2]) | Kd (ABCG2 [1]; 293T_ABCG2_OX cells, read-out: Affinity for human ABCG2) | Killing (293T_ABCG2_OX cells) | efficacy in combination with CPT11 (Irinotecan) (A549 (ATCC, CCL-185); compared with 5D3/CPT11 combination) | efflux inhibition activity (ABCG2 [2]) | binding to 293 cells overexpressing human ABCG2 (hG2) (ABCG2 [1]) | binding to 293 naïve cells (HEK 293 naïve cells) | binding to 293 cells overexpressing cynomolgus ABCG2 (cG2) (cynomolgus ABCG2) | binding to 293T cells overexpressing human ABCG2 (ABCG2 [1]; in words, FIGS. 7-11, 21) | effect on topotecan cytotoxicity on 293T_ABCG2_OX cells (293T_ABCG2_OX cells) | binding to 293T cells overexpressing cynomolgus ABCG2 (cynomolgus ABCG2; in words, FIGS. 7-11, 21)
G2.343 rat: anti-ABCG2 antibody raised in rat (antibody, V domains shown) VH: SVQLKESGPGLVQPSQTLSLTCTVSGFSLTSNGVSWVRQPPGKGLEWIAAISSGGSTYYNSVLKSRLSISRDTSKSQVFLKMNSLQTEDTAIYFCTRDTYYGYNQIPFVYWGQGTLVTVSS VL: DVVLAQTPPTLSATIGQSVSISCRSSQSLLHSSGNTYLNWLLQRPGQPPQLLIYLVSRLESRVPNRFSGSGSGTDFTLKISGVEAEDLGVYYCVQSTHAPRTFGGGTKLELK | + | + | efficacious in reducing tumor volume | efficacious in reducing tumor volume; also recorded: particularly efficacious | + |  |  |  |  |  |  |  |  |  | 
G2.333 rat: anti-ABCG2 antibody raised in rat (antibody, V domains shown) VH: EIQLQESGPGLVKPSQSLSLTCSVTGYTITSGYDWTWLRKFPGNKMEWMGYISYSGFTNYNPSLRSRISISRDTSKNQFFLQLNSVTTEDTATYYCARTRGYNPFPYWGQGTLVTVSS VL: DIQMTQSPSLLSASVGDRVSLSCKAGRNVNNYLAWYQQKLGKPPKLLIYNSNSLQTGIPSRFSGSGSGTDFTLTISSLQPEDVATYFCQQYNSWTTFGSGTKLEIK | + | + |  |  | + | 0.033 µM | + (viability ≥30% and <50% of IgG control) | significantly exceeds the efficacy of the 5D3/CPT11 combination | strong efflux inhibition activity |  |  |  |  |  | 
G2.65 mouse: anti-ABCG2 antibody raised in mouse, listed in Table 2 (antibody, V domains shown) VH: QGQMHQSGAELVKPGASVKLSCKTSGFTFNSGYISWLKQKPRQSLEWIAWIYAGTGISNFNQKFTGKAQLTVDTSSSTAYMQLSSLTSADSAIYFCASGARKTLDFWGQGTSVTVSS VL: DIQMTQSSSYLSVSVGGRVTITCKASDQINYWLAWYQQKPGNAPRLLISGATSLETGVPSRFSGSGSGKDYTLSITSFQTEDVATYYCQQYWTTPYTFGGGTKVEIK | + | − |  |  | − |  | − (≥75% of IgG control) |  |  | binds | does not significantly bind | does not significantly bind |  |  | 
G2.302 mouse: anti-ABCG2 antibody raised in mouse, listed in Table 2 (antibody, V domains shown) VH: QIQLQQSGPELVRPGASVKISCKASGYTFTDYYINWVKQRPGQGLEWIGWIYPGNVNVKYNEKFKGKATLTVDTSSSTGYMQLRSLTSEDSAVYFCARSIGLRYFDNWGQGTTLTVSS VL: EKVLTQSPAIMSASLGEKVTMSCRASSSVHYMYWHQQKSDASPRLWIYYTSNLAPGVPARFSGSGSGNFYSLTISSVEDEDGATYYCQQFTTSTWTFGGGTKLEIK | + | + |  |  | − |  | − (≥75% of IgG control) |  |  | binds | does not significantly bind | binds |  |  | 
G2.631 rat: anti-ABCG2 antibody raised in rat (antibody, V domains shown) VH: EVKLLESGGGLVQSGRSLKLSCAASGFIFSRFYMAWVRQAPRKGLEWVAYISNGAGSTYYRESVKGRFIISRDNAKSTLYLQMDSLRSEDTATYYCTTVAAPWNYVMDGWGQGASVTVSS VL: NIQITQSPSLLSASVGDRVTLSCKGSQNINNYLAWYQQKLGEAPKLLIYKTNSLHTGIPSRFSGSGSGTDYTLTISSLHSEDLATYYCYQYNNGYTFGAGTKLELK | + |  |  | efficacious in reducing tumor volume | + |  | ++ (viability ≥10% and <30% of IgG control) |  | strong efflux inhibition activity |  |  |  | strong binding | significantly increased the cytotoxic activity of topotecan | strong binding
